Experimental data: US6506881B1, “Anti-HMFG antibodies and processes for their production” (Celltech R&D Limited, priority 1991, dated 2003)

Experiments:
[1] = test system: polymorphic epithelial mucin (PEM); assay: Direct binding ELISA on PEM-coated microwell plates, transiently expressed antibodies; set-up: species or system human; conditions: from all direct binding assays (FIG. 22, 23)
Protocol: Direct binding ELISA assays for determining the binding activity of the transiently expressed antibodies were carried out as follows.
An affinity column was prepared by attaching the CTM01 MAb to a suitable chromatographic medium in conventional manner. In a first method, pooled human urine samples were applied directly to the affinity column. In a second method, human milk was subjected to low speed centrifugation to separate the cream from skimmed milk. The skimmed milk was then subjected to high speed centrifugation to produce an aqueous and a lipid component. The aqueous component was applied to the affinity column.
Once the affinity column was loaded, by either of the two methods, column fractions were eluted at high and low pHs, neutralised and assayed for reactivity with the CTM01 MAb. Fractions showing reactivity were pooled and dialysed.
Microwell plates were coated with PEM obtained as described above. The microwells were then incubated with serial dilutions of culture supernatants.
Direct binding assays were carried out on the culture supernatants produced by the doubly transfected cell lines.

[2] = test system: MCF-7 breast carcinoma cells; assay: In vitro cell binding and internalisation of 125I-labelled antibody, MCF-7; type: cell-based; conditions: MCF-7 cells; 125I-labelled antibody at 2 μg/million cells; continuous exposure
Protocol: (§1) Antibody, purified from the supernatant of each cultured cell line by protein-A sepharose chromatography was radiolabelled (^125I) and incubated using a conventional continuous exposure method with either MX-1 or MCF-7 breast carcinoma cells. Radiolabelled murine CTMO1 was used in all tests as a comparison. All antibodies were incubated at 2 μg/million cells. The total binding of antibodies to the cells and the peak net uptake of the antibodies by the cells was determined.

[3] = test system: MX-1 breast carcinoma cells; assay: In vitro cell binding and internalisation of 125I-labelled antibody, MX-1; type: cell-based; conditions: MX-1 cells; 125I-labelled antibody at 2 μg/million cells; continuous exposure
Protocol: as §1

| Molecule | order of binding activity of antibodies produced by transient expression [1] | Peak Net Uptake (molecules/cell) [2] | Total Binding, 0° (molecules/cell) [2] | Peak Net Uptake (molecules/cell) [3] | Total Binding, 0° (molecules/cell) [3] |
| --- | --- | --- | --- | --- | --- |
| gL1gH2: CDR-grafted light chain gL1 with CDR-grafted heavy chain gH2, transiently expressed (antibody, V domains shown) VH: QIQLVQSGAEVKKPGSSVKVSCKASGYTFTDYYINWMRQAPGQGLEWIGWIDPGSGNTKYNEKFKGRATLTVDTSTNTAYMELSSLRSEDTAFYFCAREKTTYYYAMDYWGQGTLVTVSS VL: DIQMTQSPSTLSASVGDRVTITCRSSKSLLHSNGDTFLYWFQQKPGKAPKLLMYRMSNLASGVPSRFSGSGSGTEFTLTISSLQPDDFATYYCMQHLEYPFTFGQGTKVEVKR | cLcH3>gL1ch=gL1gH2>cLgH2=gL2H2=gL1gH1=gL2cH>gL2gH1 |  |  |  |  |
| gL1gH1: CDR-grafted light chain gL1 with CDR-grafted heavy chain gH1 (antibody, V domains shown) VH: QIQLVQSGAEVKKPGSSVKVSCKASGYTFTDYYINWMRQAPGQGLEWMGWIDPGSGNTKYNEKFKGRVTITVDTSTNTAYMELSSLRSEDTAFYFCAREKTTYYYAMDYWGQGTLVTVSS VL: DIQMTQSPSTLSASVGDRVTITCRSSKSLLHSNGDTFLYWFQQKPGKAPKLLMYRMSNLASGVPSRFSGSGSGTEFTLTISSLQPDDFATYYCMQHLEYPFTFGQGTKVEVKR | cLcH3>gL1ch=gL1gH2>cLgH2=gL2H2=gL1gH1=gL2cH>gL2gH1 |  |  |  |  |
| hu1:CTMO1: CDR-grafted humanised CTMO1, gL1 light chain, gH2 heavy chain, human IgG2 constant domains, from NSO cells (antibody, V domains shown) VH: QIQLVQSGAEVKKPGSSVKVSCKASGYTFTDYYINWMRQAPGQGLEWIGWIDPGSGNTKYNEKFKGRATLTVDTSTNTAYMELSSLRSEDTAFYFCAREKTTYYYAMDYWGQGTLVTVSS VL: DIQMTQSPSTLSASVGDRVTITCRSSKSLLHSNGDTFLYWFQQKPGKAPKLLMYRMSNLASGVPSRFSGSGSGTEFTLTISSLQPDDFATYYCMQHLEYPFTFGQGTKVEVKR |  | 150,000 molecules/cell | 650,000 molecules/cell | 150,000 molecules/cell | 1,200,000 molecules/cell |
| hu:CTMO1: CDR-grafted humanised CTMO1, gL1 light chain, gH2 heavy chain, altered human IgG4 (IgG4P) constant domains (antibody, V domains shown) VH: QIQLVQSGAEVKKPGSSVKVSCKASGYTFTDYYINWMRQAPGQGLEWIGWIDPGSGNTKYNEKFKGRATLTVDTSTNTAYMELSSLRSEDTAFYFCAREKTTYYYAMDYWGQGTLVTVSS VL: DIQMTQSPSTLSASVGDRVTITCRSSKSLLHSNGDTFLYWFQQKPGKAPKLLMYRMSNLASGVPSRFSGSGSGTEFTLTISSLQPDDFATYYCMQHLEYPFTFGQGTKVEVKR |  | 90,000 molecules/cell | 450,000 molecules/cell | 150,000 molecules/cell | 1,100,000 molecules/cell |
